{"source": "patent US20240327847", "about": "“COMPOSITIONS AND METHODS FOR RNA AFFINITY” (SANOFI, published 2024)", "binders": {"B1": {"name": "Sm aptamer (pAM20) (ssRNA)", "RNA": "CGACCAGAAUCAUGCAAGUGCGUAAGAUAGUCGCGGG"}}, "target": "streptavidin (UniProt P22629 P22629:25-183)", "sequence (P22629 25-183, one chain of several)": "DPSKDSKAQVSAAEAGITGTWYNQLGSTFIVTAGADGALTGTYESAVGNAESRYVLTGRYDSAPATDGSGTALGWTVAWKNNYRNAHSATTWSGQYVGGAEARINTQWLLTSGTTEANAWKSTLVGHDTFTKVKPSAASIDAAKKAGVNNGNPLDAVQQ", "assay": "pulldown; recovery similar to tRNA scaffold control, described as non-specific under these conditions", "conditions": "tags: immobilised on sepharose beads (streptavidin sepharose); chain copies: 4 (inferred)", "protocol": "Subsequently, the beads were resuspended in 20 μL of binding buffer with RNasin Ribonuclease Inhibitor (3 μL/100 units) and then incubated on ice for 15 minutes. (2) Preparation of RNA aptamers. 2.5 μg of the RNA aptamers were resuspended in 10 μL binding buffer. Refolding of the RNA aptamers was performed by heating at 56° C. for 5 min, 37° C. for 10 min, followed by a room temperature incubation for 5 minutes to refold aptamer structure. At the end of the RNA aptamer preparation procedure, 2 μL of the random aptamer and the Sim aptamer in a 1:2 mix with binding buffer were collected as a control for total RNA aptamer yield (input control). (3) Incubation conditions. 10 μL of refolded aptamer containing mRNA (2.5 μg) aptamers were added to the beads and incubated at 4° C. for 2 hours on a rotator. Subsequently, beads were washed 3 times with 100 μL of binding buffer and kept on ice for the remainder of the procedure to maintain aptamer secondary structure. (4) Elution of RNA aptamers from beads. Elution was performed with 250 μL phenol-based reagent in the following steps. […] RNA concentration following streptavidin affinity purification was quantified on a Nanodrop using parameters set by the manufacturer's specifications.\nAffinity binding of the Sm, tRNA, tRNA-Sm, and 2× tRNA Sm aptamer tags were analyzed. […]"}
{"binder": "B1", "values": [{"measurement": "binding result", "value": "no binding"}]}
